This note sets out measurements from article PMC7094245.

The target in this data set is T1, IBV N protein amino-terminal region (region 1, NI) (Infectious bronchitis virus (strain …, UniProt P69598 1-133)).
T1 sequence: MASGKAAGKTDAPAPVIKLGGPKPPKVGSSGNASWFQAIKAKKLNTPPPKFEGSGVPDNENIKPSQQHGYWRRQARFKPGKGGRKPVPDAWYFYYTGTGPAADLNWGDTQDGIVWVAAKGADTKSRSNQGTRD
Put plainly: SPR. (Surface plasmon resonance follows binding to a sensor surface in real time, without labels.)

B1: IBV leader RNA (contains TRS) (ssRNA)
RNA: ACUUAAGAUAGAUAUUAAUAUAUAUCUAUUACACUAGCCUUGCGCUAGAUUUUUAACUGAACAAUACAGACCUAAAAAGUCUGUUUGAUG
With B1, the dissociation constant (Kd) (usually the equilibrium constant for the complex coming apart) is 1.43 µM. This counts as single-digit micromolar.
